The record followed here is patent US20070224124A1 (UNIVERSITY OF SOUTH FLORIDA, published 2007).

T1: mSosI ( (endogenous in murine ES …, UniProt Q62245 1-1319))
T1 construct: Its expression in ES cells was confirmed by immunoblot of whole cell lysate; also called mSos1
T1 sequence (looked up): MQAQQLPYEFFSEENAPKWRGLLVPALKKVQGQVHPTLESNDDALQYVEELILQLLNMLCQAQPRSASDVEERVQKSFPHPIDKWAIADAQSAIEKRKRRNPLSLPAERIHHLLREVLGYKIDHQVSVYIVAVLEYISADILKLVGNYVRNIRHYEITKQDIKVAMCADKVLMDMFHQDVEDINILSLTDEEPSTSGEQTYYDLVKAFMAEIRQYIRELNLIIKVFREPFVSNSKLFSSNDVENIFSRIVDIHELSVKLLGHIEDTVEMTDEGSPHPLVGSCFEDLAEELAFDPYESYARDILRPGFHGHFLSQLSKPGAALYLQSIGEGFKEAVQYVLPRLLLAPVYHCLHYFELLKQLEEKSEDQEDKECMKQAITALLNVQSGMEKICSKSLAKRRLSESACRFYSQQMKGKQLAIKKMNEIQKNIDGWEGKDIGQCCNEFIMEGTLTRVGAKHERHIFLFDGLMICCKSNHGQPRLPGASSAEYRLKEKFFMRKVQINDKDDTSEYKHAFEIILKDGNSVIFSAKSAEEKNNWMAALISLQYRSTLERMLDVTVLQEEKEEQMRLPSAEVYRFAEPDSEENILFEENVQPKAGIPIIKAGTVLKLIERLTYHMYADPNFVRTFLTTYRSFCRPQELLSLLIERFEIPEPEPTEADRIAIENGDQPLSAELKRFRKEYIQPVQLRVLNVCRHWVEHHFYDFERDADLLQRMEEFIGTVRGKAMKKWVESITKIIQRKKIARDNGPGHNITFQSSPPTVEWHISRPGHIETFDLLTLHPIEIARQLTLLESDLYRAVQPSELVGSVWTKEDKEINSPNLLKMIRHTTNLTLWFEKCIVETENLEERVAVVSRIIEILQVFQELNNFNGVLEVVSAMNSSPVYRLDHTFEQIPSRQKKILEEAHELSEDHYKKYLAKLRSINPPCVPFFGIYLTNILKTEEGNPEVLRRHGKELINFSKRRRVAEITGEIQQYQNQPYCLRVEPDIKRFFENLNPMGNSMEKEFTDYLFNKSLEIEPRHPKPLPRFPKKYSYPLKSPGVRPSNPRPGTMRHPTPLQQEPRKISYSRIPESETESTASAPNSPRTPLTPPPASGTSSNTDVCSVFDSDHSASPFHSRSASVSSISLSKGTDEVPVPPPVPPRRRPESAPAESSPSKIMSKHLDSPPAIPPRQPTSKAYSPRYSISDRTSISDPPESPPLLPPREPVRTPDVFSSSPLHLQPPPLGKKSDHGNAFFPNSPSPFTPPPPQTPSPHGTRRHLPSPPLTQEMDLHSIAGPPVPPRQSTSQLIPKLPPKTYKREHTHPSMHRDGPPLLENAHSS

B1: s-SHIP (stem-SHIP; SH2-lacking isoform of SH2-containing inositol 5'-phosphatase, approximately 104 kd) (enzyme, mouse, UniProt Q9ES52-5 1-928, looked up)
chain: MVAKLSQLTSLLSSIEDKVKSLLHEGSESTNRRSLIPPVTFEVKSESLGIPQKMHLKVDVESGKLIVKKSKDGSEDKFYSHKKILQLIKSQKFLNKLVILVETEKEKILRKEYVFADSKKREGFCQLLQQMKNKHSEQPEPDMITIFIGTWNMGNAPPPKKITSWFLSKGQGKTRDDSADYIPHDIYVIGTQEDPLGEKEWLELLRHSLQEVTSMTFKTVAIHTLWNIRIVVLAKPEHENRISHICTDNVKTGIANTLGNKGAVGVSFMFNGTSLGFVNSHLTSGSEKKLRRNQNYMNILRFLALGDKKLSPFNITHRFTHLFWLGDLNYRVELPTWEAEAIIQKIKQQQYSDLLAHDQLLLERKDQKVFLHFEEEEITFAPTYRFERLTRDKYAYTKQKATGMKYNLPSWCDRVLWKSYPLVHVVCQSYGSTSDIMTSDHSPVFATFEAGVTSQFVSKNGPGTVDSQGQIEFLACYATLKTKSQTKFYLEFHSSCLESFVKSQEGENEEGSEGELVVRFGETLPKLKPIISDPEYLLDQHILISIKSSDSDESYGEGCIALRLETTEAQHPIYTPLTHHGEMTGHFRGEIKLQTSQGKMREKLYDFVKTERDESSGMKCLKNLTSHDPMRQWEPSGRVPACGVSSLNEMINPNYIGMGPFGQPLHGKSTLSPDQQLTAWSYDQLPKDSSLGPGRGEGPPTPPSQPPLSPKKFSSSTANRGPCPRVQEARPGDLGKVEALLQEDLLLTKPEMFENPLYGSVSSFPKLVPRKEQESPKMLRKEPPPCPDPGISSPSIVLPKAQEVESVKGTSKQAPVPVLGPTPRIRSFTCSSSAEGRMTSGDKSQGKPKASASSQAPVPVKRPVKPSRSEMSQQTTPIPAPRPPLPVKSPAVLQLQHSKGRDYRDNTELPHHGKHRQEEGLLGRTAMQ
notes: also called 8-SHIP protein isoform; 104-kd and 97-kd proteins
B2: Shc adapter protein (other, UniProt P98083 1-579, looked up)
chain: MDLLPPKPKYNPLRNESLSSLEEGASGSTPPEELPSPSASSLGPILPPLPGDDSPTTLCSFFPRMSNLKLANPAGGRLGPKGEPGKAAEDGEGSAGAALRDSGLLPLLQDMNKLSGGGGRRTRVEGGQLGGEEWTRHGSFVNKPTRGWLHPNDKVMGPGVSYLVRYMGCVEVLQSMRALDFNTRTQVTREAISLVCEAVPGAKGATRRRKPCSRPLSSILGRSNLKFAGMPITLTVSTSSLNLMAADCKQIIANHHMQSISFASGGDPDTAEYVAYVAKDPVNQRACHILECPEGLAQDVISTIGQAFELRFKQYLRNPPKLVTPHDRMAGFDGSAWDEEEEEPPDHQYYNDFPGKEPPLGGVVDMRLREGAARPTLPSAQMSSHLGATLPIGQHAAGDHEVRKQMLPPPPCPGRELFDDPSYVNIQNLDKARQAGGGAGPPNPSLNGSAPRDLFDMKPFEDALRVPPPPQSMSMAEQLQGEPWFHGKLSRREAEALLQLNGDFLVRESTTTPGQYVLTGLQSGQPKHLLLVDPEGVVRTKDHRFESVSHLISYHMDNHLPIISAGSELCLQQPVDRKV
notes: Its expression in ES cells was confirmed by immunoblot of whole cell lysate

In experiment [1] the target is T1, mSosI. Nature of the experiment: co-immunoprecipitation from ES-TL1 cell lysate with P2C6 anti-SHIP antibody, immunoblot for mSosI. The text has this: (§1) FIG. 6 illustrates how ES cells express the 8-SHIP protein isoform that associates with the Grb2 adapter protein. (A) Immunoprecipitation and immunoblot detection of s-SHIP in ES cell lysates. […] No tyrosine phosphorylation of these proteins was detected when they were probed with the 4G10 anti-phosphotyrosine antibody. For comparison, lysates from 293T cells transfected with SHIP cDNA (lane 1) and s-SHIP cDNA (lane 2) were included in the blots. To further assess the tyrosine phosphorylation status of s-SHIP, timed LIF stimulation studies were performed. ES-TL1 cells incubated for 5 hours without LIF were stimulated with 2000 U/mL LIF for 0, 2, 5, or 10 minutes and were rapidly lysed. Equal amounts of total protein were immunoprecipitated with the P2C6 antibody and probed separately with the P2C6 and 4G10 antibodies (lanes 6-9). No tyrosine phosphorylation of s-SHIP was detected at any time point with the 4G10 antibody. For comparison, A20 8-lymphoid cells were stimulated with antiIgG antibody for 0 or 5 minutes, lysed, immunoprecipitated with P2C6, and probed with P2C6 and 4G10 (lanes 3, 4), showing prominent tyrosine phosphorylation of SHIP at 5 minutes. Molecular mass standards are indicated on the right. (B) s-SHIP associates with Grb2 but not Shc in ES cells. ES-TL1 cell lysates were prepared and immunoprecipitated with the […] anti-SHIP monoclonal antibody. […]
On the technique in general: In western blotting, separated proteins are transferred to a membrane and probed.

In experiment [2] the target is B1. Nature of the experiment: co-immunoprecipitation from ES-TL1 cell lysate with P2C6 anti-SHIP antibody, immunoblot for Shc.
Text: as §1

In the case of B1, the binding result in experiment [1] was “no binding”.

As for B2, in experiment [2], the binding result is listed as “no binding”.
